One molecule from patent US20250283037A1 (JUNO THERAPEUTICS, published 2025) can be followed below.

Assay [1] concerns the target T1, CD4 on the surface of human T cells (human, UniProt P01730 26-458).
T1 construct: whole, on cells; also called selection marker CD4
As to the kind of experiment: affinity column selection of cells from apheresis by the CD4 marker.

The target in assay [2] is T2, Strep-tactin M2 (streptavidin mutein) immobilised on the chromatography resin (Streptomyces avidinii, UniProt P22629 38-163).
T2 construct: also called immobilized Strep-tactin; STREP-TACTIN-coated resin
As to the kind of experiment: loading of the tagged Fab on Strep-tactin Sephadex G50, 20 min at 4 C.

B1: anti-CD4 Fab fragment m13B8.2 with Twin Strep-Tag (Fab, V domains shown)
VH: QVQLKQSGPGLVQPSQSLSITCTVSGFSLTTFGVHWVRQSPGKGLEWLGVIWASGITDYNVPFMSRLSITKDNSKSQVFFKLNSLQPDDTAIYYCAKNDPGTGFAYWGQGTLVTVSA
VL: DIQMTQSPASLSASVGETVTFTCRASEMIYSYLAWYQQKQGKSPQLLVHDAKTLAEGVPSRFSGGGSGTQFSLKINTLQPEDFGTYYCQAHYGNPPTFGGGTKLEIKR
B1: the binding result in assay [1] and in assay [2] was “binds” throughout.
